Test results reported in publication PMC3714218 (Current biology : CB, 2013).
Like-named read-outs stand apart in the source and are kept apart here.

Key:
[1] = molecular target: T1, yeast Arp2/3 complex (yeast, UniProt P32381 1-391; P47117 1-449; P38328 1-384; P53731 1-342; Q05933 1-178; P33204 …); assay: fluorescence polarisation
[2] = molecular target: T1, yeast Arp2/3 complex; assay: AUC
[3] = molecular target: ArpC1/Arc40 (subunit of yeast Arp2/3 complex) (yeast, UniProt P38328 1-384); assay: cross-linking
[4] = molecular target: Arp3 (subunit of yeast Arp2/3 complex) (yeast, UniProt P47117 1-449); assay: cross-linking
[5] = molecular target: T1, yeast Arp2/3 complex; assay: fluorescence polarisation; remark: listed apart in the source

Chain of Arp3 (subunit of yeast Arp2/3 complex) (P47117 whole entry, one chain of several): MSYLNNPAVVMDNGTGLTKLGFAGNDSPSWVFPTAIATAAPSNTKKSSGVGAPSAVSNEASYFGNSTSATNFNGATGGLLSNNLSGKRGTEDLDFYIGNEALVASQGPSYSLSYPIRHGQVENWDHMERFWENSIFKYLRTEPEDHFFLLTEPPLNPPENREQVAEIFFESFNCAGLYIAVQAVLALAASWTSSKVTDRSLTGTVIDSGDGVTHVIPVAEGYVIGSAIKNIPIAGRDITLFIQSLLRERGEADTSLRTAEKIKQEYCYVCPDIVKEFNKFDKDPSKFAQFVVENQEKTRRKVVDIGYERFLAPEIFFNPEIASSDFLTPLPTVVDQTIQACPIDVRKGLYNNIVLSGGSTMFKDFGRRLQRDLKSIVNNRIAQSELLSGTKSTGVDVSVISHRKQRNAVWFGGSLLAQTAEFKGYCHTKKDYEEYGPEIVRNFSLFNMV
Chain of ArpC1/Arc40 (subunit of yeast Arp2/3 complex) (P38328 whole entry, one chain of several): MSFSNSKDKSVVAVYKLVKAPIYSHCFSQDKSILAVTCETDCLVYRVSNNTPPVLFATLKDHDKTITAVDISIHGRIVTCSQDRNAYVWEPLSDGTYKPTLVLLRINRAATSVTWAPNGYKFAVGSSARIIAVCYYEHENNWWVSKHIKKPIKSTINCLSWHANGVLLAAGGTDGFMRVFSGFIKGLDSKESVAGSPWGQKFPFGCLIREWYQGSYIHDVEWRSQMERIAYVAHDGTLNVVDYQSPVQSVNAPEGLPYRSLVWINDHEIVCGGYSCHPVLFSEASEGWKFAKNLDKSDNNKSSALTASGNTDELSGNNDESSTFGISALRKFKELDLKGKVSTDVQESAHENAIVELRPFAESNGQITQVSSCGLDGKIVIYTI

Row | Kd [1] | KD of the first binding site [2] | KD of the second binding site [2] | stoichiometry N [2] | binding result [3] | binding result [4] | Kd [5] | Binder
1 | 13 ± 2 nM | < 30 nM | ~2000 nM | ~2 Gmf1-GFP per Arp2/3 complex |  |  |  | Gmf1-GFP (natural protein, S. cerevisiae, UniProt Q12156 1-149, looked up) MSNLYKIGTETRNKIKKFRTSTARTDSIKALSIKIEPKPSYEIIVDEDEQEELDEIEDLSELAEILPDNSPRFVLTAYPTTTKDGFKQTPLVLVYWKPMTVVSQEWKMLYAGALEMIREECGTFKLIEVSSGLEDDSDVEELREQLENC
2 |  |  |  |  | binds | binds | 10 ± 3 nM | wild-type Gmf1 (untagged) (natural protein, S. cerevisiae, UniProt Q12156 1-149, looked up) MSNLYKIGTETRNKIKKFRTSTARTDSIKALSIKIEPKPSYEIIVDEDEQEELDEIEDLSELAEILPDNSPRFVLTAYPTTTKDGFKQTPLVLVYWKPMTVVSQEWKMLYAGALEMIREECGTFKLIEVSSGLEDDSDVEELREQLENC
